Each sequence was assayed on Escherichia coli TOP10 (assay: shrunken log2 fold change of peptide-encoding DNA abundance (4.5 h post-induction vs induction); higher = less antimicrobial activity (less host growth inhibition)). Settings: time post-induction: 4.5 h; library: site-saturation at positions 5, 18, 19, 20.
RRIRWRPPRLPRPRPRPSIFPRP was tested, and the “shrunken log2 fold change” value was -0.396.
With RRIRDRPPRLPRPRPRPTNAPRP the “shrunken log2 fold change” value was 0.182.
RRIRKRPPRLPRPRPRPEDTPRP was tested, and the “shrunken log2 fold change” value was 0.103.
With RRIRIRPPRLPRPRPRPSQQPRP the “shrunken log2 fold change” value was -0.11.
With RRIRRRPPRLPRPRPRPRFRPRP the “shrunken log2 fold change” value was 0.455.
For RRIRLRPPRLPRPRPRPGSSPRP, the “shrunken log2 fold change” value was 0.0118.
For RRIRDRPPRLPRPRPRPHRYPRP, the “shrunken log2 fold change” value was -0.21.
With RRIRVRPPRLPRPRPRPAIDPRP the “shrunken log2 fold change” value was 0.0602.
In the case of RRIRVRPPRLPRPRPRPFIGPRP, the “shrunken log2 fold change” value is reported as -0.291.
In the case of RRIRYRPPRLPRPRPRPTFPPRP, the “shrunken log2 fold change” value is reported as -0.279.
RRIRCRPPRLPRPRPRPPCGPRP was tested, and the “shrunken log2 fold change” value was 0.142.
RRIRERPPRLPRPRPRPFSRPRP was tested, and the “shrunken log2 fold change” value was -0.0038.
RRIRMRPPRLPRPRPRPNCLPRP was tested, and the “shrunken log2 fold change” value was -0.00154.
For RRIRFRPPRLPRPRPRPPGGPRP, the “shrunken log2 fold change” value was 0.782.
For RRIRDRPPRLPRPRPRPDHCPRP, the “shrunken log2 fold change” value was -0.00174.
RRIRHRPPRLPRPRPRPYKEPRP was tested, and the “shrunken log2 fold change” value was -0.00664.
With RRIRLRPPRLPRPRPRPPSYPRP the “shrunken log2 fold change” value was 0.119.
For RRIRLRPPRLPRPRPRPWPHPRP, the “shrunken log2 fold change” value was 0.0514.
RRIRGRPPRLPRPRPRPSKWPRP was tested, and the “shrunken log2 fold change” value was -0.158.
In the case of RRIRYRPPRLPRPRPRPSMRPRP, the “shrunken log2 fold change” value is reported as -0.634.
For RRIRCRPPRLPRPRPRPEAPPRP, the “shrunken log2 fold change” value was 0.755.
For RRIRFRPPRLPRPRPRPRWCPRP, the “shrunken log2 fold change” value was 0.14.
For RRIRKRPPRLPRPRPRPNDCPRP, the “shrunken log2 fold change” value was -0.0159.
RRIRCRPPRLPRPRPRPKWYPRP was tested, and the “shrunken log2 fold change” value was -0.239.
RRIRIRPPRLPRPRPRPTHCPRP was tested, and the “shrunken log2 fold change” value was -0.00414.
For RRIRQRPPRLPRPRPRPVNSPRP, the “shrunken log2 fold change” value was -0.0167.
In the case of RRIRPRPPRLPRPRPRPKSQPRP, the “shrunken log2 fold change” value is reported as -0.193.
RRIRRRPPRLPRPRPRPTDCPRP was tested, and the “shrunken log2 fold change” value was 0.0967.
In the case of RRIRYRPPRLPRPRPRPARMPRP, the “shrunken log2 fold change” value is reported as -0.0508.
With RRIRTRPPRLPRPRPRPEMTPRP the “shrunken log2 fold change” value was 0.0523.
In the case of RRIRFRPPRLPRPRPRPKMSPRP, the “shrunken log2 fold change” value is reported as -0.369.
In the case of RRIRLRPPRLPRPRPRPIKSPRP, the “shrunken log2 fold change” value is reported as -0.202.
RRIRMRPPRLPRPRPRPPHKPRP was tested, and the “shrunken log2 fold change” value was 0.585.
For RRIRARPPRLPRPRPRPESIPRP, the “shrunken log2 fold change” value was -0.0955.
In the case of RRIRQRPPRLPRPRPRPGNNPRP, the “shrunken log2 fold change” value is reported as -0.54.
RRIRCRPPRLPRPRPRPPVLPRP was tested, and the “shrunken log2 fold change” value was -0.169.
In the case of RRIRARPPRLPRPRPRPWDMPRP, the “shrunken log2 fold change” value is reported as 0.187.
In the case of RRIRHRPPRLPRPRPRPKLHPRP, the “shrunken log2 fold change” value is reported as -0.271.
With RRIRLRPPRLPRPRPRPFVLPRP the “shrunken log2 fold change” value was -0.513.
With RRIRARPPRLPRPRPRPTRGPRP the “shrunken log2 fold change” value was 0.301.
In the case of RRIRPRPPRLPRPRPRPKSHPRP, the “shrunken log2 fold change” value is reported as -0.246.
For RRIRSRPPRLPRPRPRPGYEPRP, the “shrunken log2 fold change” value was -0.157.
In the case of RRIRPRPPRLPRPRPRPDMWPRP, the “shrunken log2 fold change” value is reported as -0.103.
RRIRSRPPRLPRPRPRPTSYPRP was tested, and the “shrunken log2 fold change” value was -0.0485.
For RRIRFRPPRLPRPRPRPIRCPRP, the “shrunken log2 fold change” value was 0.0461.
For RRIRERPPRLPRPRPRPHFNPRP, the “shrunken log2 fold change” value was -0.744.
RRIRDRPPRLPRPRPRPIDKPRP was tested, and the “shrunken log2 fold change” value was -0.0708.
For RRIRTRPPRLPRPRPRPRKWPRP, the “shrunken log2 fold change” value was 0.215.
For RRIRQRPPRLPRPRPRPLKVPRP, the “shrunken log2 fold change” value was -0.102.
With RRIRFRPPRLPRPRPRPSFFPRP the “shrunken log2 fold change” value was -0.0473.
For RRIRIRPPRLPRPRPRPNTLPRP, the “shrunken log2 fold change” value was -0.818.
In the case of RRIRWRPPRLPRPRPRPSQRPRP, the “shrunken log2 fold change” value is reported as -0.0741.
For RRIRKRPPRLPRPRPRPMQYPRP, the “shrunken log2 fold change” value was -0.0135.
With RRIRLRPPRLPRPRPRPENDPRP the “shrunken log2 fold change” value was -0.336.
With RRIRPRPPRLPRPRPRPAGRPRP the “shrunken log2 fold change” value was 0.395.
RRIRCRPPRLPRPRPRPLFGPRP was tested, and the “shrunken log2 fold change” value was -0.0673.
In the case of RRIRDRPPRLPRPRPRPKKFPRP, the “shrunken log2 fold change” value is reported as 0.117.
With RRIRQRPPRLPRPRPRPGLVPRP the “shrunken log2 fold change” value was 0.18.
For RRIRPRPPRLPRPRPRPSCAPRP, the “shrunken log2 fold change” value was 0.0332.
RRIRGRPPRLPRPRPRPGEMPRP was tested, and the “shrunken log2 fold change” value was 1.31.
For RRIRFRPPRLPRPRPRPLRPPRP, the “shrunken log2 fold change” value was 0.932.
For RRIRGRPPRLPRPRPRPCENPRP, the “shrunken log2 fold change” value was 0.136.
In the case of RRIRIRPPRLPRPRPRPWDEPRP, the “shrunken log2 fold change” value is reported as -0.156.
For RRIRHRPPRLPRPRPRPTDVPRP, the “shrunken log2 fold change” value was -0.217.
RRIRVRPPRLPRPRPRPCCHPRP was tested, and the “shrunken log2 fold change” value was -0.217.
RRIRDRPPRLPRPRPRPWSEPRP was tested, and the “shrunken log2 fold change” value was -0.228.
With RRIRVRPPRLPRPRPRPFRLPRP the “shrunken log2 fold change” value was -0.267.
RRIRSRPPRLPRPRPRPWLWPRP was tested, and the “shrunken log2 fold change” value was 1.45.
In the case of RRIRDRPPRLPRPRPRPAAWPRP, the “shrunken log2 fold change” value is reported as 1.56.
In the case of RRIRGRPPRLPRPRPRPRNWPRP, the “shrunken log2 fold change” value is reported as 1.35.
RRIRWRPPRLPRPRPRPALSPRP was tested, and the “shrunken log2 fold change” value was -0.0314.
For RRIRPRPPRLPRPRPRPKMHPRP, the “shrunken log2 fold change” value was 0.153.
RRIRARPPRLPRPRPRPDQCPRP was tested, and the “shrunken log2 fold change” value was 0.0213.
With RRIRYRPPRLPRPRPRPPIYPRP the “shrunken log2 fold change” value was -0.676.
RRIRGRPPRLPRPRPRPKGDPRP was tested, and the “shrunken log2 fold change” value was 0.0175.
RRIRDRPPRLPRPRPRPFYAPRP was tested, and the “shrunken log2 fold change” value was -0.439.
RRIRVRPPRLPRPRPRPIIVPRP was tested, and the “shrunken log2 fold change” value was 0.0713.
In the case of RRIRDRPPRLPRPRPRPIWFPRP, the “shrunken log2 fold change” value is reported as -0.192.
For RRIRWRPPRLPRPRPRPSVRPRP, the “shrunken log2 fold change” value was 0.117.
RRIRTRPPRLPRPRPRPYWKPRP was tested, and the “shrunken log2 fold change” value was -0.000823.
With RRIRNRPPRLPRPRPRPLIEPRP the “shrunken log2 fold change” value was -0.284.
For RRIRFRPPRLPRPRPRPLLSPRP, the “shrunken log2 fold change” value was 0.0127.
In the case of RRIRRRPPRLPRPRPRPNNNPRP, the “shrunken log2 fold change” value is reported as -0.426.
RRIRIRPPRLPRPRPRPKYEPRP was tested, and the “shrunken log2 fold change” value was -0.83.
In the case of RRIRTRPPRLPRPRPRPYVVPRP, the “shrunken log2 fold change” value is reported as -0.738.
In the case of RRIRHRPPRLPRPRPRPHPCPRP, the “shrunken log2 fold change” value is reported as -0.612.
RRIRMRPPRLPRPRPRPATIPRP was tested, and the “shrunken log2 fold change” value was 0.23.
With RRIRDRPPRLPRPRPRPDLTPRP the “shrunken log2 fold change” value was 0.00118.
In the case of RRIRMRPPRLPRPRPRPWKDPRP, the “shrunken log2 fold change” value is reported as -0.0578.
RRIRIRPPRLPRPRPRPCWDPRP was tested, and the “shrunken log2 fold change” value was -0.0479.
With RRIRGRPPRLPRPRPRPINDPRP the “shrunken log2 fold change” value was -0.211.
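Further: peptides expressed intracellularly from a pBAD plasmid library in pooled LB shake-flask culture, induced with 0.3% L-arabinose, DNA abundance read by NGS, three biological replicates, DESeq2 with apeglm shrinkage.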
